Assay [1] addresses endogenous neurexin on the surface of immature hippocampal neurons (mouse (endogenous in primary hippocampal neurons)) (UniProt Q9CS84). Briefly: immunostaining of cells or tissue; cell surface binding assay, apparent Kd: Fc protein at 0-100 nM in HEPES bath solution, 1 h at room temperature, on DIV10 hippocampal neurons transduced with CA10-FLAG lentivirus; Fc signal normalised to neurexin staining.

For assay [2] the target is unchanged. Briefly: immunostaining of cells or tissue; cell surface binding assay, apparent Kd: Fc protein at 0-100 nM in HEPES bath solution, 1 h at room temperature, on DIV10 hippocampal neurons transduced with control (empty vector) lentivirus; Fc signal normalised to neurexin staining.

In PMC8024894 one finds Kd data, which are given here for 2 molecules.

UniProt Q9CS84, sequence (Q9CS84 31-1514): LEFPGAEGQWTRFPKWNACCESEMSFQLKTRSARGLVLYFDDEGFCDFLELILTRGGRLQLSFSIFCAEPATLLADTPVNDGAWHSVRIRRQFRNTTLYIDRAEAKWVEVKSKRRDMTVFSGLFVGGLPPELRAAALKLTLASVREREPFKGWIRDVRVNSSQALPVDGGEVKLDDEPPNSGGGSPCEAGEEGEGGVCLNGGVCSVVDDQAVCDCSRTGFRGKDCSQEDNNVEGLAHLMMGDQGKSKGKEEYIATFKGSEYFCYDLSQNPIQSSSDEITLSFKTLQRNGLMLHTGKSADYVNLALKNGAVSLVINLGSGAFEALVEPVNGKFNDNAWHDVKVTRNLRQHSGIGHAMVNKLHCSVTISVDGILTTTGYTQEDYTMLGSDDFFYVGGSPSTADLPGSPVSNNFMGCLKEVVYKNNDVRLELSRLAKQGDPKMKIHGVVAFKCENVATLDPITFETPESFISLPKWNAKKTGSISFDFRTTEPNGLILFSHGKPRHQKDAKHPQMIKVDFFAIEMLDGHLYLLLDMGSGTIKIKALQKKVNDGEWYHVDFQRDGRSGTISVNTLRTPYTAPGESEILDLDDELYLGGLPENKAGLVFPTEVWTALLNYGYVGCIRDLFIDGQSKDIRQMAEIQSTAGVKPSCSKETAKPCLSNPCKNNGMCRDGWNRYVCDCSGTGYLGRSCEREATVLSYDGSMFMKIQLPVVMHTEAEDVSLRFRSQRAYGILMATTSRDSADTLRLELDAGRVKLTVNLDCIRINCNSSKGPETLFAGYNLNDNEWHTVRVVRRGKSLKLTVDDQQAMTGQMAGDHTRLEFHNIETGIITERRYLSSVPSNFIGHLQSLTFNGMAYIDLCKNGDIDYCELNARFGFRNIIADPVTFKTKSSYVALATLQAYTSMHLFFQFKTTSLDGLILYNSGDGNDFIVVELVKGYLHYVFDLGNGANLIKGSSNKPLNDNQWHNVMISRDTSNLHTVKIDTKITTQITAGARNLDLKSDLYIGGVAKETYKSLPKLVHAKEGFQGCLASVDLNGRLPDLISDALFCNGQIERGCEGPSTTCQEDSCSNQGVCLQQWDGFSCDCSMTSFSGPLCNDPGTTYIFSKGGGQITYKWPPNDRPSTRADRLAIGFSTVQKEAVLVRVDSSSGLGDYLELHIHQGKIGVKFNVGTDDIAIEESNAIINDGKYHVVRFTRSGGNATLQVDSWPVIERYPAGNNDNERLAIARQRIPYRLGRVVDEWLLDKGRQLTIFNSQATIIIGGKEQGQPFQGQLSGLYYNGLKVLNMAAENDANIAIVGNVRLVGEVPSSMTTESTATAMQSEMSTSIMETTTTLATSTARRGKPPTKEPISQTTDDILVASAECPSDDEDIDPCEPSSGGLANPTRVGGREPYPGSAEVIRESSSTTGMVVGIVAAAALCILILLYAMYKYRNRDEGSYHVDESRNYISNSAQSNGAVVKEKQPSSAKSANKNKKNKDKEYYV

For Fc‐tagged Nlgn1 (Fc fusion), the Kd in assay [1] turned out to be 223 nM; in assay [2] it was 186 nM.

B1: Fc‐tagged LRRTM2 (Fc fusion)
chain: CPPKCRCEKLLFYCDSQGFHSVPNATDKGSLGLSLRHNHITELERDQFASFSQLTWLHLDHNQISTVKEDAFQGLYKLKELILSSNKIFYLPNTTFTQLINLQNLDLSFNQLSSLHPELFYGLRKLQTLHLRSNSLRTIPVRLFWDCRSLEFLDLSTNRLRSLARNGFAGLIKLRELHLEHNQLTKINFAHFLRLSSLHTLFLQWNKISNLTCGMEWTWGTLEKLDLTGNEIKAIDLTVFETMPNLKILLMDNNKLNSLDSKILNSLRSLTTVGLSGNLWECSARICALASWLGSFQGRWEHSILCHSPDHTQGEDILDAVHGFQLCWNLSTTVTVMATTYRDPTTEYTKRISSSSYHVGDKEIPTTAGIAVTTEEHFPEPDNAIFTQR
Turning to B1, the Kd came to 35.3 nM in assay [1] and 29.5 nM in assay [2].
